Experimental data as given in article PMC8837534, “CD147 supports paclitaxel resistance via interacting with RanBP1” (Oncogene, 2022).

Molecular target: T1, RanBP1 protein (full-length, recombinant) (UniProt P43487 1-201)
T1 construct: pMAL-c5x vector; that this removed MBP is inferred; source: E. coli BL21 (DE3), purified (MBPTrap HP, thrombin digestion, Superdex 75); not shown: MBP, N-terminal, cleaved
Experiment: SPR; ProteOn XPR36, One-shot Kinetics; concentration series of CD147^ICD injected over the immobilized ligand in TBS-T, 50 μL/min for 3 min, dissociation 12 min; constants by ProteOn Manager Software
Settings: both partners purified

T1 sequence (P43487 whole entry): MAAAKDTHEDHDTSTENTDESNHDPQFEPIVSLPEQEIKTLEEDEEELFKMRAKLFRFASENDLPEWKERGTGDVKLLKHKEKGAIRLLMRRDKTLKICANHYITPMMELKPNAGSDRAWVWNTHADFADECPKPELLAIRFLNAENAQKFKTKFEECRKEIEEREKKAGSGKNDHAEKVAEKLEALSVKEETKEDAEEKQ

Kd: 2250 nM
B1: His6-tagged CD147^ICD (intracellular domain of CD147, residues 231-269) (domain or fragment, UniProt P35613-2 231-269, looked up)
chain: KRRKPEDVLDDDDAGSAPLKSSGQHQNDKGKNVRQRNSS
notes: CD147 (basigin), intracellular domain, residues 231-269; One preparation is described (pET21a, 'SUMO-His tag at the C-terminus', SUMO removed by Ulp1); The pull-down names the bait as His6-tagged; source: E. coli BL21 (DE3), purified (HisTrap HP, Ulp1 digestion, Superdex 75); not shown: SUMO, C-terminal, cleaved; His6, C-terminal, kept
